Test results published in article PMC12346298, “Structures of MmpL complexes reveal the assembly and mechanism of this family of transporters” (Science Advances, 2025).

How the values were obtained:
[1] = target: mycobacterial membrane protein large 5 (MmpL5) transporter, M. smegmatis (M. smegmatis) (UniProt A0QS80); assay: cryo-EM structure; particle class 2 (tripartite trimeric AcpM-MmpL5-MmpS5 complex) from the same LMNG-solubilized crude membrane sample; Build and Retrieve processing; 2.81 Å
[2] = target: mycobacterial membrane protein large 5 (MmpL5) transporter, M. smegmatis (M. smegmatis) (UniProt A0QS80); assay: cryo-EM structure; particle class 3 (dipartite trimeric AcpM-MmpL5 complex) from the same LMNG-solubilized crude membrane sample; Build and Retrieve processing; 3.37 Å
[3] = target: T1, mycobacterial membrane protein large 5 (MmpL5) transporter, M. smegmatis (M. smegmatis, UniProt A0QS80 1-967); assay: cryo-EM structure; particle class 1 (2D arrays of monomeric AcpM-MmpL5 units) from LMNG-solubilized crude M. smegmatis membranes enriched by sucrose cushion; Build and Retrieve processing; 3.35 Å; settings: partners not purified
T1 construct: MmpL5 of Mycobacterium smegmatis, gene MSMEG_1382 cloned into pBUN250; 12 TM helices, periplasmic subdomains PD1-PD3 (PD3 = residues 499-684); Seen as a monomer (in 2D arrays) and as a homotrimer in different particle classes of one sample; Residues 493-702 are not modelled in 9MX0, residues 499-655 not in 9MW0; also called MSMEG_1382; source: M. smegmatis MC2-155, coexpressed with MmpS5 from …
T1 sequence (looked up): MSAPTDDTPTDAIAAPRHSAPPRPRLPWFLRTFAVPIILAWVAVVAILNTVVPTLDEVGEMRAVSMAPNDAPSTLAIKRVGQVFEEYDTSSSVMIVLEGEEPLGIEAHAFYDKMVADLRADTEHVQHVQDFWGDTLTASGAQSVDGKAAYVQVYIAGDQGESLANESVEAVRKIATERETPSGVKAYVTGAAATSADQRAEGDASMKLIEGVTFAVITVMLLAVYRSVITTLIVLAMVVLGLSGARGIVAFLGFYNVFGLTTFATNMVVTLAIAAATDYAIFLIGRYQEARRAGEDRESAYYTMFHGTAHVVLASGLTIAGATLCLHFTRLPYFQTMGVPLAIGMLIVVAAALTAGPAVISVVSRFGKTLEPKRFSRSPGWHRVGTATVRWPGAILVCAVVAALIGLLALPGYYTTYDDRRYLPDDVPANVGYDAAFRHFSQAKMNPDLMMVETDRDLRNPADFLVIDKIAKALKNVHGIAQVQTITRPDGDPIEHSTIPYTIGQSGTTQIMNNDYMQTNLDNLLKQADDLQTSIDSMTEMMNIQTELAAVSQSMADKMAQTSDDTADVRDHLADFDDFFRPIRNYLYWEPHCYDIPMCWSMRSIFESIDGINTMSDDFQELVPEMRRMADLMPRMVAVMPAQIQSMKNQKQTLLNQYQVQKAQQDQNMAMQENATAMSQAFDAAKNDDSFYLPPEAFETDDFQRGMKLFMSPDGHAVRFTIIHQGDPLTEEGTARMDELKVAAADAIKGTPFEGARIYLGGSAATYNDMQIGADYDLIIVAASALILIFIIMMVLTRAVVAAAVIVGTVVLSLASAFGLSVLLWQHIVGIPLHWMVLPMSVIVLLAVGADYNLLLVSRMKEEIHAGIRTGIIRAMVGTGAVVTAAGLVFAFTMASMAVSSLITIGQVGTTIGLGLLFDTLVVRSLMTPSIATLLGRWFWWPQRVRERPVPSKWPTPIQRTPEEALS

[4] = target: T1, mycobacterial membrane protein large 5 …; assay: cryo-EM structure; particle class 2 (tripartite trimeric AcpM-MmpL5-MmpS5 complex) from the same LMNG-solubilized crude membrane sample; Build and Retrieve processing; 2.81 Å; settings: partners not purified

Molecule: MmpS5 adaptor protein, M. smegmatis (natural protein)
- stoichiometry N (MmpS5:MmpL5 (3:3)) [1]: 1

Molecule: mycobacterial membrane protein large 5 (MmpL5) transporter, M. smegmatis (from UniProt A0QS80 1-967) (natural protein)
- stoichiometry N [1]: 3
- stoichiometry N [2]: 3

B1: meromycolate extension acyl carrier protein M (AcpM), M. smegmatis (natural protein, UniProt A0R0B3 1-99, looked up)
chain: MAATQEEIIAGLAEIIEEVTGIEPSEVTPEKSFVDDLDIDSLSMVEIAVQTEDKYGVKIPDEDLAGLRTVGDVVAYIQKLEEENPEAAAALREKFAADQ
notes: AcpM, cytosolic meromycolate extension acyl carrier protein of Mycobacterium smegmatis, not overexpressed; identified in the cryo-EM maps and by proteomics; four-helix bundle, 82 C-alpha atoms compared; Came with MmpL5 from the host cells; source: endogenous, M. smegmatis MC2-155; detergent-solubilized (LMNG) crude membranes, enriched by sucrose cushion centrifugation
- stoichiometry N [3]: 1 AcpM:MmpL5 (1:1)
- stoichiometry N [4]: 1 AcpM:MmpL5 (3:3)
